Patent US20050181450A1, “Novel inositol 1,4,5-trisphosphate (IP3) receptor-binding protein and an IP3 indicator” (priority 2002, published 2005)

What was measured:
Type in all cases: binding
[1] = molecular target: T1, GST-EL (mouse IP3R1 amino acids 1-2217) (Mus musculus, UniProt P11881, N1264K); test: GST pulldown with GST-EL
T1 construct: construct a GST-IP3R1 (1-2217) vector (termed GST-EL); made in house; host or cells: Sf9 cells (baculovirus)
Procedure: Mouse cerebellar cytosolic fraction was diluted 2-fold with 10 mM Hepes (pH 7.4), 200 mM NaCl, 2 mM EDTA, 1 mM 2-ME and 0.02% Triton X-100. The high salt extract was diluted 5-fold with 10 mM Hepes (pH 7.4), 2 mM EDTA, 1 mM 2-ME and 0.01% Triton X-100. The diluted fractions (the final NaCl concentration of both fractions was 100 mM) were incubated with 20 μg of GST-EL or GST for 2 hours at 4° C. After adding 10 μl of glutathione-Sepharose and another 2 hours of incubation, the resins were washed 5 times with a wash buffer (10 mM Hepes (pH 7.4), 100 mM NaCl, 2 mM EDTA, 1 mM 2-ME, and 0.01% Triton X-100), and bound proteins were eluted with 20 mM glutathione.
The eluted proteins were analyzed by Western blotting with anti-IRBIT antibody. For dephosphorylation, the diluted high salt extract was incubated in the presence of or the absence of Escherichia coli alkaline phosphatase (Toyobo) with 2 mM MgCl2 for 30 minutes at 37° C. 5 mM EDTA was added, and then the resultant was subjected to pulldown assay as described above.
For the determination of the IP3R1-interacting region of IRBIT, Cos-7 cells expressing GFP-tagged full-length IRBIT or its truncated mutants were lysed in a lysis buffer (10 mM Hepes (pH7.4), 100 mM NaCl, 2 mM EDTA, 1 mM 2-ME, 0.5% Nonidet P-40, and protease inhibitor) for 30 minutes at 4° C., followed by centrifugation (100,000×g, 30 minutes). The supernatants were subjected to pulldown assay with GST-EL or GST as described above, and bound proteins were subjected to immunoblot analysis with anti-GFP antibody (Medical & Biological Laboratories).

[2] = molecular target: T2, type II phosphatidylinositol phosphate kinase γ (Homo sapiens, UniProt Q8TBX8); test: Co-immunoprecipitation in Cos-7 cells with Myc-PIPKII γ; conditions: overexpressing Cos-7 cells
T2 construct: expressed in transfected cells; host or cells: Cos-7
T2 sequence (Q8TBX8 1-421): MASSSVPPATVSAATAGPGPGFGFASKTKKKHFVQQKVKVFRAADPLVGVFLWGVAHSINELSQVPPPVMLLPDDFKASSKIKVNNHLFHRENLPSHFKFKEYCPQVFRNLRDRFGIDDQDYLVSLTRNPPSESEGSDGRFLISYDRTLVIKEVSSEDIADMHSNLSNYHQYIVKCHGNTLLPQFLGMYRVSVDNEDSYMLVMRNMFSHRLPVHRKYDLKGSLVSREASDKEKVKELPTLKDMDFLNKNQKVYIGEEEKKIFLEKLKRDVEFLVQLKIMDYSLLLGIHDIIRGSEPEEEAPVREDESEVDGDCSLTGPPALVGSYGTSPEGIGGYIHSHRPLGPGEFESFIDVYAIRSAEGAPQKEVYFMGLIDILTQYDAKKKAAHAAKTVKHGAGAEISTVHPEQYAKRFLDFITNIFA
Procedure: (A and B) IRBIT was transfected into Cos-7 cells with Myc-tagged type II phosphatidylinositol phosphate kinase α, β or γ (PIPKII α, β or γ). After two days, cells were lysed in lysis buffer, followed by centrifugation (100,000×g, 30 min). The supernatants were incubated with 3 μg of anti-IRBIT antibody, rabbit IgG, mouse anti-Myc antibody, or mouse IgG for 1 h at 4° C. After adding 5 μl of Protein G beads and another 1-h incubation, the beads were washed five times with lysis buffer and analyzed by Western blotting with anti-IRBIT antibody or HRP conjugated anti-Myc antibody. Immunoprecipitation of Myc-PIPKII α, β or γ with anti-Myc antibody co-precipitated IRBIT (A). In the reciprocal experiments, immunoprecipitation of IRBIT with anti-IRBIT antibody precipitated Myc-PIPKII α, β or γ.
IRBIT was transfected into Cos-7 cells with Myc-tagged type II phosphatidylinositol phosphate kinase α, β or γ (PIPKII α, β or γ). After two days, cells were lysed in lysis buffer, followed by centrifugation (100,000×g, 30 min). The supernatants were incubated with 3 μg of anti-IRBIT antibody, rabbit IgG, mouse anti-Myc antibody, or mouse IgG for 1 h at 4° C. After adding 5 μl of Protein G beads and another 1-h incubation, the beads were washed five times with lysis buffer and analyzed by Western blotting with anti-IRBIT antibody or HRP conjugated anti-Myc antibody.

[3] = molecular target: T3, GST-Iab (mouse IP3R1 amino acids 1-343) (Mus musculus, UniProt P11881); test: GST pulldown with GST-Iab; conditions: IRBIT in high salt extract
T3 construct: made in house; host or cells: Escherichia coli
T3 sequence (P11881 1-343): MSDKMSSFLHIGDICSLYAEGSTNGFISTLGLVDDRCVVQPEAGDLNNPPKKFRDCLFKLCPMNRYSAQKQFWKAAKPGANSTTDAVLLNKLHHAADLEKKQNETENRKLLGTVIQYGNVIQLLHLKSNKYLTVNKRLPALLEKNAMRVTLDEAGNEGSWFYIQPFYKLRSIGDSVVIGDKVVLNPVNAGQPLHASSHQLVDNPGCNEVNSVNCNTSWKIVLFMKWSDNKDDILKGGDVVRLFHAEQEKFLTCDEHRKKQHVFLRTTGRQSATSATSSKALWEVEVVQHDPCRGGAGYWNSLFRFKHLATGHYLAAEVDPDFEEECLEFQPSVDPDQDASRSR
From the text: The cDNAs encoding the full-length and N-terminal region (amino acids 1-104) of IRBIT were subcloned into the Escherichia coli hexahistidine (His) fusion vector pET-23a(+) (Novagen) to generate IRBIT-His and IRBIT(1-104)-His expression vectors, respectively. The same cDNAs were subcloned into the GST fusion vector pGEX-4T-1 (Amersham Pharmacia Biotech) to generate GST-IRBIT and GST-IRBIT(1-104) expression vectors, respectively. The cDNA fragments encoding the amino acids 1-225, 1-343, 341-923, 600-1248, 916-1581 and 1553-1943 of the amino acid sequence (SEQ ID NO: 7) of mouse IP3R1 were inserted into pGEX-KG to generate GST-Ia, GST-Iab, GST-IIab, GST-IIbIIIa, GST-IIIab and GST-IV expression vectors, respectively. The amino acids 1593-2217 of mouse IP3R1 were inserted into pGEX-4T-1 to obtain GST-IV-Va expression vector. These fusion proteins were expressed in Escherichia coli. GST-EL was expressed in Sf9 cells as described above. […]
For the determination of the IRBIT binding region and the critical amino acid residue of IP3R1, the diluted high salt extract was subjected to pulldown assay as described above with 100 pmol of GST, GST-EL, GST-Ia, GST-Iab, GST-IbIIa, GST-IIab, GST-IIbIIIa, GST-IIIab, GST-IV, GST-IV-Va, K508A or R441Q, and analyzed by Western blotting with anti-IRBIT antibody.

T1 sequence (P11881 1-2217 N1264K): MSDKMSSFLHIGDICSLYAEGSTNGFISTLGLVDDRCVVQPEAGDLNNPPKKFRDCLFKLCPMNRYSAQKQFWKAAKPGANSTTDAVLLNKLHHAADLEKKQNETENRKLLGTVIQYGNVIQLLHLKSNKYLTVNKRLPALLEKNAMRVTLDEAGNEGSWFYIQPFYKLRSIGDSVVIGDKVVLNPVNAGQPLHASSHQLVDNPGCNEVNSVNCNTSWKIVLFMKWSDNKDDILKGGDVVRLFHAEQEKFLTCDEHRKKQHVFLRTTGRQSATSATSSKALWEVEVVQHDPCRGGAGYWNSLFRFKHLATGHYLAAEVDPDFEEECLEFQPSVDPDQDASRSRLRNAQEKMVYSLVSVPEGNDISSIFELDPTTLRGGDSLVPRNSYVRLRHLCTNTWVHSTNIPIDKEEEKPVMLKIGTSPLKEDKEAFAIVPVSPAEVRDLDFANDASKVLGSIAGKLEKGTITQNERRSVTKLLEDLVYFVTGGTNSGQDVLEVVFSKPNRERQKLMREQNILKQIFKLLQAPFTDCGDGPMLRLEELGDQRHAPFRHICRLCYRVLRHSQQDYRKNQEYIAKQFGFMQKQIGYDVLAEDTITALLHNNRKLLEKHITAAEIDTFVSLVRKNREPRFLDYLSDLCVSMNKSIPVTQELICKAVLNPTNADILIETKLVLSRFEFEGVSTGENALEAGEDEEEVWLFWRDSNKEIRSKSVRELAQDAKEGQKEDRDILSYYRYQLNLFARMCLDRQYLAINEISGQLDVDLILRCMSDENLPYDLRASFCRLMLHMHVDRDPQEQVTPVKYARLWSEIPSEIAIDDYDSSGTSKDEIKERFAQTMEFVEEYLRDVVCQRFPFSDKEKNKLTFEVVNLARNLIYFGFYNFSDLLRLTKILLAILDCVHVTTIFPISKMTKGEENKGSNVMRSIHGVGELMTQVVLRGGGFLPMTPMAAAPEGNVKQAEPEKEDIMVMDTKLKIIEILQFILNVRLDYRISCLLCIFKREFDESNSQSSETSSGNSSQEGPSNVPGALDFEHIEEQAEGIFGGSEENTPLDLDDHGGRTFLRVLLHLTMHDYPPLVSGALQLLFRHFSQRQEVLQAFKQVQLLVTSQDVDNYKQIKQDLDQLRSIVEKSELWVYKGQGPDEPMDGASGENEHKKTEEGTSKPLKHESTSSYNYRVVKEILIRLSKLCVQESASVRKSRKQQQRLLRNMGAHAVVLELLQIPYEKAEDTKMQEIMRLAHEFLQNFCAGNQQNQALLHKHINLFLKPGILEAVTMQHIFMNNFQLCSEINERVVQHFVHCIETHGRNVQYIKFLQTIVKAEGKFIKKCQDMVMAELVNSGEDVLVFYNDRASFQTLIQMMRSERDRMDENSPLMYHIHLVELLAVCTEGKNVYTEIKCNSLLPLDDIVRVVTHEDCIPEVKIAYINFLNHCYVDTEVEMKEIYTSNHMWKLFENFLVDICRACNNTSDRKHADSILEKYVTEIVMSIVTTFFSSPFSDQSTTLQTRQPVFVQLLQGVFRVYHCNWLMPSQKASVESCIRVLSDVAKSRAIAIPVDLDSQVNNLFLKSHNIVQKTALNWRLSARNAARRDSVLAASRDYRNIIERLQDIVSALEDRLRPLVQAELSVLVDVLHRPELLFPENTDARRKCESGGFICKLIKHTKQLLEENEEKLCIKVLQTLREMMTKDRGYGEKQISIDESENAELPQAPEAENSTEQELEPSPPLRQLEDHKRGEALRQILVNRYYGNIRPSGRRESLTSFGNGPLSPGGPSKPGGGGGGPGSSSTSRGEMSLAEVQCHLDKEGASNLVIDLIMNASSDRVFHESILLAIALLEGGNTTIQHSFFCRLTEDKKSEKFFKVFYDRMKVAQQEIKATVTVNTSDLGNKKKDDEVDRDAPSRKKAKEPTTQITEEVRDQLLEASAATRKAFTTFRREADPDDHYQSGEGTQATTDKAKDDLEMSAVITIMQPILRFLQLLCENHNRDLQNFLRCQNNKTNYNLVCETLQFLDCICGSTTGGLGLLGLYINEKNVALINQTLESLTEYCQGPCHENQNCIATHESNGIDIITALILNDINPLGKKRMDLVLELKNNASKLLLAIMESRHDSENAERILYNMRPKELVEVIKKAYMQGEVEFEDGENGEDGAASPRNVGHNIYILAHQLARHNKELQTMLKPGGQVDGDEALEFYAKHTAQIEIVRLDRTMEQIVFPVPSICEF

B1: IRBIT: novel IP3 receptor-binding protein of 530 amino acids, SEQ ID NO: 1 (protein, listed as Mus musculus)
chain: MSMPDAMPLPGVGEELKQAKEIEDAEKYSFMATVTKAPKKQIQFADDMQEFTKFPTKTGRRSLSRSISQSSTDSYSSAASYTDSSDDEVSPREKQQTNSKGSSNFCVKNIKQAEFGRREIEIAEQDMSALISLRKRAQGEKPLAGAKIVGCTHITAQTAVLIETLCALGAQCRWSACNIYSTQNEVAAALAEAGVAVFAWKGESEDDFWWCIDRCVNMDGWQANMILDDGGDLTHWVYKKYPNVFKKIRGIVEESVTGVHRLYQLSKAGKLCVPAMNVNDSVTKQKFDNLYCCRESILDGLKRTTDVMFGGKQVVVCGYGEVGKGCCAALKALGAIVYITEIDPICALQACMDGFRVVKLNEVIRQVDVVITCTGNKNVVTREHLDRMKNSCIVCNMGHSNTEIDVTSLRTPELTWERVRSQVDHVIWPDGKRVVLLAEGRLLNLSCSTVPTFVLSITATTQALALIELYNAPEGRYKQDVYLLPKKMDEYVASLHLPSFDAHLTELTDDQAKYLGLNKNGPFKPNYYRY
interaction with GST-EL ([1]; IRBIT in high salt extract of mouse cerebellar crude microsome): interacted with GST-EL | interaction with GST-EL ([1]; IRBIT in mouse cerebellar cytosolic fraction): did not interact with GST-EL | interaction with GST-EL ([1]; high salt extract treated with alkaline phosphatase): did not interact with GST-EL | interaction with PIPKII γ [2]: interacted | interaction with GST-Iab [3]: did not interact
